{"source": "paper PMC8558862", "about": "“Imaging of Dysfunctional Elastogenesis in Atherosclerosis Using an Improved Gadolinium-Based Tetrameric MRI Probe Targeted to Tropoelastin” (Journal of Medicinal Chemistry, 2021)", "key": {"[1]": {"tested_on": "atherosclerotic plaques in the brachiocephalic artery of ApoE–/– mice", "assay": "In vivo LGE MRI at 3 T in atherosclerotic ApoE–/– mice", "details": "0.2 mmol kg^–1 i.v.", "method": "The Gd4-TESMA probe was assessed for its ability to enhance the MRI signal within plaques in the brachiocephalic artery of an ApoE^–/– murine model of plaque progression and in control nonatherosclerotic mice. For these studies, atherosclerotic ApoE^–/– mice were scanned after the tandem administration of Gd-ESMA, Gd-TESMA (24 h after the Gd-ESMA administration), and finally Gd4-TESMA (24 h after the Gd-TESMA administration; Supporting Information Figure S1). […] All molecular probes were injected at a dose of 0.2 mmol kg^–1 (corresponding to the same dose of injected gadolinium for Gd-ESMA and Gd-TESMA and to a dose of 0.8 mmolGd kg^–1 for Gd4-TESMA). […]\nFollowing a 3D GRE scout scan, contrast-enhanced angiography images were acquired for visualization of the aortic root, aortic arch, and brachiocephalic and carotid arteries with a FOV = 30 × 30 × 8 mm, matrix = 200 × 200, in-plane resolution = 0.15 × 0.15 mm (reconstructed = 0.10 × 0.10 mm), slice thickness = 0.5 mm, TR/TE = 15/6.1 (ms), and flip angle = 40°. […] Late gadolinium enhanced images were acquired with an inversion-recovery 3D fast gradient echo sequence every 30 min for up to 2 h postinjection of the contrast agent and were used to visualize and quantify contrast uptake."}, "[2]": {"assay": "1H NMRD profile fitting (SBM and Freed theory)", "assay_type": "physicochemical", "details": "HEPES buffer pH 7.2; Gd-TESMA NMRD at 2.3 mM", "description": "Figure 4 ^1H NMRD profiles showing the millimolar relaxivity per gadolinium r1p of Gd-TESMA (2.3 mM, solid symbols) and Gd4-TESMA (1.3 mM, open symbols) in the HEPES buffer (pH 7.2) at 298 K (circles) and 310 K (squares). The solid line represents the best fitting of the experimental points at 310 K to the SBM and Freed theory of paramagnetic relaxation. The following parameters were kept fixed: water diffusion coefficient (D) = 3.1 10^–5 cm^2 s^–1; distance between Gd(III) and the inner sphere water protons (r) = 3.1 Å; number of inner sphere water molecules (q) = 1; and distance of the closest approach of outer-sphere water protons = 3.8 Å. Curve fitting converged to the following: correlation time for molecular reorientation (τR) = 170 ps; residence lifetime of the inner sphere water molecule (τM) = 460 ns; correlation time for electronic relaxation (τv) = 47 ps; and zero-field splitting energy (Δ^2) = 1.3 10^19 s^–2. […]\nThe water proton longitudinal relaxation rates as a function of the magnetic field strength were measured in aqueous solutions using a Fast Field-Cycling Stelar SmarTracer relaxometer (Stelar s.r.l., Mede (PV), Italy) over a continuum of magnetic field strengths from 0.00024 to 0.25 T (corresponding to 0.01–10 MHz proton Larmor frequencies). […]"}, "[3]": {"target": "T1, immobilized human recombinant tropoelastin (Homo sapiens, UniProt P15502)", "T1 construct": "purchased Advanced BioMatrix 5052-1MG", "T1 sequence (P15502 27-786)": "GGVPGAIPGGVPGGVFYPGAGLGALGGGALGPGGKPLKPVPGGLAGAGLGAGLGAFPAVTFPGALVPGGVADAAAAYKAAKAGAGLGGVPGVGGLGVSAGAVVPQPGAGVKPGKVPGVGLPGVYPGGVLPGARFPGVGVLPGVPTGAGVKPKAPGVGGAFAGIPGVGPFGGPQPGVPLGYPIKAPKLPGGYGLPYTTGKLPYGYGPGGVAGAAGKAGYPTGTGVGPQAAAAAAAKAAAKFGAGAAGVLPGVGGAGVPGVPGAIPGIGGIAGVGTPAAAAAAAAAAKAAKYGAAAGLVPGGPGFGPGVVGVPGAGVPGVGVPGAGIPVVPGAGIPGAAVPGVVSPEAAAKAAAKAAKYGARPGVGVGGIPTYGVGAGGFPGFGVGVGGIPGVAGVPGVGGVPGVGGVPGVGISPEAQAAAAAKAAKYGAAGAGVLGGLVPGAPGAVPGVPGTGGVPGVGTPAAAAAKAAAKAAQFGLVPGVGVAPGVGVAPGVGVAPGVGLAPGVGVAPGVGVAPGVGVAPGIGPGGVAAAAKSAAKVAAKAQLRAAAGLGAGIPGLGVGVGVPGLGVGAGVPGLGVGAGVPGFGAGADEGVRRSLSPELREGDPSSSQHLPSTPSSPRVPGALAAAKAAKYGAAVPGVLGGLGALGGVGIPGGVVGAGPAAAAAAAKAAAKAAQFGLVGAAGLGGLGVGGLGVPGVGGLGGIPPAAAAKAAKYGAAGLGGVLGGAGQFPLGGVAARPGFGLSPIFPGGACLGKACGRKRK", "assay": "Surface plasmon resonance binding affinity (kinetic mode, 1:1 Langmuir model)", "details": "SPR Biacore 2000, CM5 chip, 25 °C, HEPES running buffer pH 7.4; mean ± SD of triplicate measurements", "method": "The binding affinity of Gd-TESMA and Gd4-TESMA to tropoelastin was assessed by surface plasmon resonance (SPR) under the kinetic affinity mode.\nThe binding affinity between tropoelastin (human recombinant tropoelastin, Advanced BioMatrix, Cat. No. 5052-1MG, Batch No. 7932) and Gd4-TESMA or Gd-TESMA was assessed by surface plasmon resonance (SPR) on a Biacore 2000 instrument (Cytiva). The instrument was equipped with a CM5 sensor chip carrying carboxymethylated dextran (Cytiva). First, the ligand was immobilized on the sensor chip surface by amine coupling: the flow cell was activated for 7 min by a 1-ethyl-3-(3-dimethylaminopropyl)carbodiimide hydrochloride (EDC)/N-hydroxysuccinimide (NHS) mixture. Then, tropoelastin was injected at 200 μM in a 10 mM sodium acetate buffer (pH 4) with a flow rate of 5 μL min^–1 to reach an immobilization level corresponding to 3500–5000 resonance units (R.U.). The remaining active sites were blocked by 1 M of ethanolamine-HCl (pH 8.5) for 7 min. As a control for nonspecific interaction, another flow cell on the CM5 sensor chip was treated in the same manner but without adding tropoelastin. […] The equilibrium dissociation constant (KD) and the kinetic association and dissociation rate constants (ka and kd) were determined by curve-fitting using the 1:1 Langmuir binding model implemented in the Biaevaluation software 4.1.1.[48] […]"}, "[4]": {"assay": "Relaxometry: water proton longitudinal relaxivity", "assay_type": "physicochemical", "details": "298 K, 3.8 mM HEPES, 150 mM NaCl, pH 7.2", "description": "The relaxivity per gadolinium of Gd4-TESMA is 8.5 ± 0.2 mM^–1 s^–1 (at 20 MHz, 298 K, 3.8 mM HEPES, 150 mM NaCl, pH 7.2; Table 1), while that of Gd-TESMA under the same conditions cannot be defined uniquely as it changes with the concentration of the complex.\nThe water proton longitudinal relaxation rates as a function of the magnetic field strength were measured in aqueous solutions using a Fast Field-Cycling Stelar SmarTracer relaxometer (Stelar s.r.l., Mede (PV), […] MHz proton Larmor frequencies). The relaxometer operates under computer control with an absolute uncertainty in 1/T1 of 1%. […] The ^1H T1 relaxation times were acquired by the standard inversion recovery method with a typical 90° pulse width of 3.5 μs, 16 experiments, and 4 scans. The temperature was controlled using a Stelar VTC-91 airflow heater equipped with a calibrated copper–constantan thermocouple (uncertainty of ±0.1 °C).\nMRI data are presented as median ± interquartile range (IQR). […] P values <0.05 were considered statistically significant."}, "[5]": {"assay": "Serum stability by RP-HPLC", "details": "male, human, 50% (v/v) aqueous pooled human serum", "description": "The stabilities of Gd4-TESMA and the parent VVGS-peptide in human serum were evaluated by HPLC (Figure 6). Compounds were incubated up to 120 min, and aliquots were taken at different times: 0, 35, and 120 min.\nThe serum stabilities of Gd4-TESMA and its parent peptide (VVGS-peptide) were determined in 50% (v/v) aqueous pooled serum from human male AB plasma, which was purchased from Sigma-Aldrich (Milan, Italy). Samples were dissolved in water (6.6 mM), diluted in serum (previously centrifuged at 8000 rpm for 15 min at 4 °C) at a final concentration of 0.6 mM (220 μL), and subsequently incubated at 37 °C. Aliquots (6 μL) taken after 0, 35, and 120 min were diluted in water at a final concentration of 0.06 mM. The samples were analyzed by RP-HPLC using an Atlantis dC18 column, 5 μm, 4.6 × 150 mm, as described in ref ([47]). The amount of intact compound was estimated by integrating the area under the corresponding elution peak monitored at 210 nm. Five replicate experiments for each compound were carried out. The […] (HPLW peptide),[47] unrelated to TESMA, was used as a positive control."}, "[6]": {"target": "T2, human recombinant tropoelastin (human, UniProt P15502 27-786)", "T2 construct": "tropoelastin (soluble elastin precursor), human, recombinant; also called TE; source: bought: Advanced BioMatrix (Cat. No. 5052-1MG, Batch No. 7932)", "T2 sequence (looked up)": "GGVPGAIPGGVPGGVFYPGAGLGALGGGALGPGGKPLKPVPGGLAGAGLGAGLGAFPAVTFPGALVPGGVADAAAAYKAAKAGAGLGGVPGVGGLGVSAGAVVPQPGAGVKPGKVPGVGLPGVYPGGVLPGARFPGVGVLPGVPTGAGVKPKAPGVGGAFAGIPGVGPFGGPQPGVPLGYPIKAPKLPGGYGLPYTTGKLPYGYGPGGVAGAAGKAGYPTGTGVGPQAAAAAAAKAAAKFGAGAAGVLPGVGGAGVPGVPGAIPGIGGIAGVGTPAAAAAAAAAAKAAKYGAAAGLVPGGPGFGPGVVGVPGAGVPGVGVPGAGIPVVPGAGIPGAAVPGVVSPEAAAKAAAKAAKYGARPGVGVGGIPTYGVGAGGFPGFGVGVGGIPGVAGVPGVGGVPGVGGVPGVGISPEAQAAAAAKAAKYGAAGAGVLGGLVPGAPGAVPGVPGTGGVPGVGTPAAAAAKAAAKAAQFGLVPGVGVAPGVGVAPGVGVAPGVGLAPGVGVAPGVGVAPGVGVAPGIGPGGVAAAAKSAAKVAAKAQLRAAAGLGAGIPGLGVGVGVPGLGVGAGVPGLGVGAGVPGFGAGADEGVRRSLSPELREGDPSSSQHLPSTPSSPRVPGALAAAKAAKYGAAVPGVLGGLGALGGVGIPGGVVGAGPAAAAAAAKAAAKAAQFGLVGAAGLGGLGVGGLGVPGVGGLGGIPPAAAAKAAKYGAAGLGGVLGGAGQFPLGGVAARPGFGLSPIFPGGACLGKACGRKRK", "assay": "SPR; Biacore 2000; tropoelastin immobilised on a CM5 chip by amine coupling (3500-5000 R.U.); analyte injected at 20 uL/min for 3 min at 25 °C in HEPES running buffer (pH 7.4, HBS-P) or 10 mM HEPES; control flow cell subtracted; 1:1 Langmuir fit; triplicate", "details": "both partners purified"}}, "note": "Ends that are not written are not given here. (Gd-DOTA)4‑MI = maleimide-bearing lysine-based tetramer of four Gd(III)-DOTA-monoamide chelates", "data": [{"molecule": "C-GAESAPLVSSVQSPD [Gd4-scTESMA]", "values": [{"measurement": "accumulation within plaques", "setting": "[1]; ApoE–/– mice, LGE MRI, in comparison to Gd4-TESMA", "result": "low/negligible accumulation within plaques"}]}, {"molecule": "Gd-TESMA: single Gd-DOTA monoamide unit conjugated with a 15-residue peptide sequence (VVGS-peptide); monomeric counterpart, purchased (VVGSPSAQDEASPLS; also: single Gd-DOTA monoamide unit conjugated, site not given here) [reference compound]", "values": [{"measurement": "aggregation (inferred from concentration dependence of relaxivity and NMRD profile)", "setting": "[2]", "result": "self-assembled into aggregates with high polydispersity at relatively high concentrations"}, {"measurement": "vessel wall-to-blood CNR at 0.5 h postinjection", "setting": "[1]; ApoE–/– mice on HFD 16 weeks, 3 T LGE MRI, 0.5 h, median (IQR)", "result": 6.75}, {"measurement": "dissociation rate constant kd", "setting": "[3]", "result": "2.3 × 10^–2 ± 0.5 × 10^–2 s^–1"}, {"measurement": "relaxivity per gadolinium at 18 μM probe", "setting": "[4]; 18 μM probe, 20 MHz", "result": 6.1, "unit": "mM^–1 s^–1"}, {"measurement": "relaxivity r1 at 20 MHz, probe at 1 mM", "setting": "[4]; 1 mM probe, 20 MHz, mean ± SD", "result": "10.0 ± 0.3", "unit": "mM^–1 s^–1"}, {"measurement": "relaxivity r1 at 125 MHz, probe at 1 mM", "setting": "[4]; 1 mM probe, 125 MHz, mean ± SD", "result": "10.4 ± 0.3", "unit": "mM^–1 s^–1"}, {"measurement": "relaxivity per gadolinium at 2.3 mM probe", "setting": "[4]; 2.3 mM probe, 20 MHz", "result": 12.4, "unit": "mM^–1 s^–1"}]}, {"molecule": "VVGSPSAQDEASPLS [VVGS-peptide]", "values": [{"measurement": "half-life at 0.6 mM", "setting": "[5]", "result": "~45", "unit": "min"}, {"measurement": "remaining at 2 h, 0.6 mM", "setting": "[5]", "result": "~20", "unit": "%"}]}, {"molecule": "VVGSPSAQDEASPLS (also: single Gd-DOTA monoamide unit conjugated, site not given here, also called monomeric Gd-TESMA probe; source: bought: For Peptide Protein Research Limited (Fareham, UK))", "note": "[Gd-TESMA]", "values": [{"measurement": "Kd", "setting": "[6]", "result": 28, "unit": "µM"}, {"measurement": "koff", "setting": "[6]", "result": 0.023, "unit": "s⁻¹"}, {"measurement": "kon", "setting": "[6]", "result": 880, "unit": "M⁻¹ s⁻¹"}]}, {"molecule": "C((Gd-DOTA)4‑MI)VVGSPSAQDEASPLS (also: Gd(III) chelates, thiol/maleimide conjugation, also called tetrameric Gd4-TESMA probe; source: synthetic peptide (Fmoc SPPS), reacted with [Gd-DOTA]4-MI, purified by semipreparative HPLC)", "note": "[Gd4-TESMA]", "values": [{"measurement": "Kd", "setting": "[6]", "result": 41, "unit": "µM"}]}]}
